Laboratory results: patent US10030233B2, “Modified P450 reductase with N-terminal deletions and endoplasmic reticulum retention tag” (DE MONTFORT UNIVERSITY, priority 2013, dated 2018)

B1: hRD: wild-type human P450 reductase, full length, control (protein, listed as Homo sapiens)
chain: MGDSHVDTSSTVSEAVAEEVSLFSMTDMILFSLIVGLLTYWFLFRKKKEEVPEFTKIQTLTSSVRESSFVEKMKKTGRNIIVFYGSQTGTAEEFANRLSKDAHRYGMRGMSADPEEYDLADLSSLPEIDNALVVFCMATYGEGDPTDNAQDFYDWLQETDVDLSGVKFAVFGLGNKTYEHFNAMGKYVDKRLEQLGAQRIFELGLGDDDGNLEEDFITWREQFWPAVCEHFGVEATGEESSIRQYELVVHTDIDAAKVYMGEMGRLKSYENQKPPFDAKNPFLAAVTTNRKLNQGTERHLMHLELDISDSKIRYESGDHVAVYPANDSALVNQLGKILGADLDVVMSLNNLDEESNKKHPFPCPTSYRTALTYYLDITNPPRTNVLYELAQYASEPSEQELLRKMASSSGEGKELYLSWVVEARRHILAILQDCPSLRPPIDHLCELLPRLQARYYSIASSSKVHPNSVHICAVVVEYETKAGRINKGVATNWLRAKEPAGENGGRALVPMFVRKSQFRLPFKATTPVIMVGPGTGVAPFIGFIQERAWLRQQGKEVGETLLYYGCRRSDEDYLYREELAQFHRDGALTQLNVAFSREQSHKVYVQHLLKQDREHLWKLIEGGAHIYVCGDARNMARDVQNTFYDIVAELGAMEHAQAVDYIKKLMTKGRYSLDVWS
B2: ΔN2hRD-HDEL: human P450 reductase lacking the 54-amino acid membrane anchoring region, with C-terminal yeast ER retention signal HDEL (protein)
chain: MTKIQTLTSSVRESSFVEKMKKTGRNIIVFYGSQTGTAEEFANRLSKDAHRYGMRGMSADPEEYDLADLSSLPEIDNALVVFCMATYGEGDPTDNAQDFYDWLQETDVDLSGVKFAVFGLGNKTYEHFNAMGKYVDKRLEQLGAQRIFELGLGDDDGNLEEDFITWREQFWPAVCEHFGVEATGEESSIRQYELVVHTDIDAAKVYMGEMGRLKSYENQKPPFDAKNPFLAAVTTNRKLNQGTERHLMHLELDISDSKIRYESGDHVAVYPANDSALVNQLGKILGADLDVVMSLNNLDEESNKKHPFPCPTSYRTALTYYLDITNPPRTNVLYELAQYASEPSEQELLRKMASSSGEGKELYLSWVVEARRHILAILQDCPSLRPPIDHLCELLPRLQARYYSIASSSKVHPNSVHICAVVVEYETKAGRINKGVATNWLRAKEPAGENGGRALVPMFVRKSQFRLPFKATTPVIMVGPGTGVAPFIGFIQERAWLRQQGKEVGETLLYYGCRRSDEDYLYREELAQFHRDGALTQLNVAFSREQSHKVYVQHLLKQDREHLWKLIEGGAHIYVCGDARNMARDVQNTFYDIVAELGAMEHAQAVDYIKKLMTKGRYSLDVWSHDEL
modifications: delN2hRD-HDEL
notes: human P450 reductase lacking the 54-amino acid membrane anchoring region, with C-terminal yeast ER retention signal HDEL
B3: ΔN1hRD-M: human P450 reductase lacking N-terminal 24 amino acids, with C-terminal 12-amino acid c-myc tag; described in WO 2007/129050; gene SEQ ID NO: 5 (protein)
chain: MTDMILFSLIVGLLTYWFLFRKKKEEVPEFTKIQTLTSSVRESSFVEKMKKTGRNIIVFYGSQTGTAEEFANRLSKDAHRYGMRGMSADPEEYDLADLSSLPEIDNALVVFCMATYGEGDPTDNAQDFYDWLQETDVDLSGVKFAVFGLGNKTYEHFNAMGKYVDKRLEQLGAQRIFELGLGDDDGNLEEDFITWREQFWPAVCEHFGVEATGEESSIRQYELVVHTDIDAAKVYMGEMGRLKSYENQKPPFDAKNPFLAAVTTNRKLNQGTERHLMHLELDISDSKIRYESGDHVAVYPANDSALVNQLGKILGADLDVVMSLNNLDEESNKKHPFPCPTSYRTALTYYLDITNPPRTNVLYELAQYASEPSEQELLRKMASSSGEGKELYLSWVVEARRHILAILQDCPSLRPPIDHLCELLPRLQARYYSIASSSKVHPNSVHICAVVVEYETKAGRINKGVATNWLRAKEPAGENGGRALVPMFVRKSQFRLPFKATTPVIMVGPGTGVAPFIGFIQERAWLRQQGKEVGETLLYYGCRRSDEDYLYREELAQFHRDGALTQLNVAFSREQSHKVYVQHLLKQDREHLWKLIEGGAHIYVCGDARNMARDVQNTFYDIVAELGAMEHAQAVDYIKKLMTKGRYSLDVWSSSEQKLISEEDLNGSRL
modifications: delN1hRD-M
B4: ΔN1hRD-HDEL: human P450 reductase lacking N-terminal 24 amino acids, with C-terminal yeast ER retention signal HDEL (protein)
chain: MTDMILFSLIVGLLTYWFLFRKKKEEVPEFTKIQTLTSSVRESSFVEKMKKTGRNIIVFYGSQTGTAEEFANRLSKDAHRYGMRGMSADPEEYDLADLSSLPEIDNALVVFCMATYGEGDPTDNAQDFYDWLQETDVDLSGVKFAVFGLGNKTYEHFNAMGKYVDKRLEQLGAQRIFELGLGDDDGNLEEDFITWREQFWPAVCEHFGVEATGEESSIRQYELVVHTDIDAAKVYMGEMGRLKSYENQKPPFDAKNPFLAAVTTNRKLNQGTERHLMHLELDISDSKIRYESGDHVAVYPANDSALVNQLGKILGADLDVVMSLNNLDEESNKKHPFPCPTSYRTALTYYLDITNPPRTNVLYELAQYASEPSEQELLRKMASSSGEGKELYLSWVVEARRHILAILQDCPSLRPPIDHLCELLPRLQARYYSIASSSKVHPNSVHICAVVVEYETKAGRINKGVATNWLRAKEPAGENGGRALVPMFVRKSQFRLPFKATTPVIMVGPGTGVAPFIGFIQERAWLRQQGKEVGETLLYYGCRRSDEDYLYREELAQFHRDGALTQLNVAFSREQSHKVYVQHLLKQDREHLWKLIEGGAHIYVCGDARNMARDVQNTFYDIVAELGAMEHAQAVDYIKKLMTKGRYSLDVWSHDEL
modifications: delN1hRD-HDEL
notes: human P450 reductase lacking N-terminal 24 amino acids, with C-terminal yeast ER retention signal HDEL

System: CYP1A2
Assay: Amount of CYP1A2 in yeast microsomes by CO-difference spectra, co-expressed with P450 reductase variants
Assay type: cell-based, human
Details: relative to hRD = 1; yeast W303B, pSYE265
Experimental: The hRD variant genes, (ΔN1hRD-M, ΔN1hRD-HDEL, ΔN2hRD-HDEL), were integrated into Saccharomyces cerevisiae strain W303B (MAT a leu2 his3 trp1 can1-100 ade2 trp1 ura3) using standard yeast transformation procedures as detailed below. The integrating plasmids, bearing the ΔN1hRD-M, ΔN1hRD-HDEL, ΔN2hRD-HDEL genes, were first linearised with the restriction enzyme BstEII before introducing linearised DNA into yeast cells via homologous recombination. The resultant strains were named: • a) W303B-ΔN1hRD-M, • b) W303B-ΔN1hRD-HDEL, • c) W303B-ΔN2hRD-HDEL.
They were used for the transformation of the yeast episomal plasmids that bear the CYP2D6 and CYP1A2 genes: • 1. pSYE264 (bearing the human CYP2D6 gene), • 2. pSYE265 (bearing the human CYP1A2 gene).
A single colony from the strains W303B-ΔN1hRD-M, W303B-ΔN1hRD-HDEL, W303B-ΔN2hRD-HDEL were picked up from a minimal medium (SD) plate (supplemented with appropriate nutrients depending on the auxotrophic markers in the yeast strain) and inoculated into 10 ml of YPD medium (2% Bacto Peptone, 1% yeast extract, 2% glucose). The cells were grown overnight at 30° C. with 220 rpm shaking. 1.5 ml of overnight cultures were centrifuged at 13,000 rpm for a few seconds to collect the cell pellets. 0.5-2 μg of transforming DNA (i.e. the CYP bearing expression plasmids, pSYE264 and pSYE265) and 100 μg of single-stranded salmon sperm DNA were added to pellets and vortexed briefly. 500 μl of PEG solution (40% PEG 3350, 0.1M lithium acetate pH 7.5, 10 mM Tris-HCl pH 7.5, 1 mM EDTA pH7.5) and 5-10% DMSO were added to transformation mixes. All mixes were incubated in a Thermo-mixer for 15 min at 25° C. with shaking at 400 rpm, and then were heat shocked for 15 min at 42° C. After 10 min, 5-10% ethanol was added. The cells were pelleted at 8000 rpm for 1 min and were washed twice in 1×TE buffer and re-suspended in 250 μl-500 μl 1×TE pH7.5. The cells were plated out on SD agar medium and incubated at 30° C. for 2-3 days.
Recombinant yeast cells were grown in culture using the following protocol: • 1. […] On day two, once OD600 (i.e. OD measured at 600 nm) of the cultures reached 5 to 6 OD-s, the cultures were inoculated into 400 ml YPD medium (1% Bacto Peptone, 1% yeast extract, 2% glucose) with appropriate nutrients in 2-liter flask. […] On day three, after 16 hours, optical density was again measured at 600 nm after diluting the original culture 1:10. […] At the final step, supernatant was poured away and the dry pellet was frozen at −80° C. and the pellet weight was recorded. […]
The cell pellet that had been obtained from the earlier cell culture was weighed and the weight of cell pellet was recorded. […]

Molecule | Relative Amounts of CYP1A2 Obtained
B1 | 1
B2 | 4.5 ± 10%
B3 | 3.2 ± 10%
B4 | 4.0 ± 10%
